Test results published in the Immune Epitope Database (IEDB).

How the values were obtained:
[1] = biological target: HLA-B*44:03; assay: IEDB peptide-MHC binding, purified MHC/competitive/radioactivity; filed as Kd, often an IC50 or EC50 that approximates it; ≥ and ≤ were set here for values at or beyond the usual limits of such assays
[2] = biological target: HLA-B*40:01; assay: as above
[3] = biological target: HLA-B*44:02; assay: as above
[4] = biological target: HLA-B*18:01; assay: as above
[5] = biological target: HLA-B*45:01; assay: as above
[6] = biological target: HLA-B*40:02; assay: as above
[7] = biological target: HLA-B*53:01; assay: as above; conditions: source organism: Dengue virus 3 Martinique/1243/1999
[8] = biological target: HLA-B*51:01; assay: as above
[9] = biological target: HLA-B*48:01; assay: IEDB peptide-MHC binding, purified MHC/direct/fluorescence; filed as Kd, often an IC50 or EC50 that approximates it; ≥ and ≤ were set here for values at or beyond the usual limits of such assays; conditions: source organism: Salmonella enterica subsp. enterica serovar Typhi
[10] = biological target: HLA-A*01:01; assay: IEDB peptide-MHC binding, purified MHC/competitive/radioactivity; filed as Kd, often an IC50 or EC50 that approximates it; ≥ and ≤ were set here for values at or beyond the usual limits of such assays; conditions: source organism: Dengue virus 1 Brazil/97-11/1997
[11] = biological target: HLA-B*08:01; assay: as above; conditions: source organism: Dengue virus 4 Philippines/H241/1956
[12] = biological target: HLA-B*15:17; assay: IEDB peptide-MHC binding, purified MHC/competitive/fluorescence; filed as Kd, often an IC50 or EC50 that approximates it; ≥ and ≤ were set here for values at or beyond the usual limits of such assays; conditions: source organism: Homo sapiens
[13] = biological target: HLA-A*02:01; assay: IEDB peptide-MHC binding, purified MHC/direct/fluorescence; filed as Kd, often an IC50 or EC50 that approximates it; ≥ and ≤ were set here for values at or beyond the usual limits of such assays; conditions: source organism: Homo sapiens
[14] = biological target: HLA-B*39:01; assay: IEDB peptide-MHC binding, purified MHC/competitive/fluorescence; filed as Kd, often an IC50 or EC50 that approximates it; ≥ and ≤ were set here for values at or beyond the usual limits of such assays; conditions: source organism: Homo sapiens
[15] = biological target: HLA-B*18:01; assay: as above; conditions: source organism: Homo sapiens
[16] = biological target: HLA-B*51:01; assay: as above; conditions: source organism: Homo sapiens
[17] = biological target: HLA-A*69:01; assay: as above; conditions: source organism: Homo sapiens
[18] = biological target: HLA-B*57:01; assay: as above; conditions: source organism: Homo sapiens
[19] = biological target: HLA-B*46:01; assay: as above; conditions: source organism: Homo sapiens
[20] = biological target: HLA-A*26:01; assay: as above; conditions: source organism: Homo sapiens
[21] = biological target: HLA-B*27:03; assay: as above; conditions: source organism: Homo sapiens
[22] = source organism: SARS coronavirus Tor2
[23] = source organism: Mammarenavirus brazilense

RELHLSWEVG
Kd [1, 22]: 0.0427 µM
Kd [2, 22]: 0.829 µM
Kd [3, 22]: 0.0083 µM
Kd [4, 22]: 1.59 µM
Kd [5, 22]: 1.28 µM
Kd [6, 22]: 0.198 µM

TPTGTVMDI
Kd [7]: 0.114 µM
Kd ([8]; source organism: Dengue virus 3 Martinique/1243/1999): 7.24 µM

RAVEPGSML
Kd [9]: 0.713 µM

FDAWFSQRGG
Kd [1, 22]: ≥ 32 µM
Kd [2, 22]: ≥ 69.6 µM
Kd [3, 22]: 9.75 µM
Kd [4, 22]: ≥ 70.5 µM
Kd [5, 22]: 0.36 µM
Kd [6, 22]: ≥ 70.8 µM

FTQTAGPWHL
Kd [10]: ≥ 23.5 µM
Kd ([8]; source organism: Dengue virus 1 Brazil/97-11/1997): ≥ 36.5 µM

VALLRTYCI
Kd [11]: 0.0355 µM
Kd ([8]; source organism: Dengue virus 4 Philippines/H241/1956): 0.392 µM

YSPALNKMF
Kd [12]: 0.337 µM

ADMSKLISL
Kd [1, 23]: ≥ 33.6 µM
Kd [2, 23]: 17.4 µM
Kd [3, 23]: ≥ 36.9 µM
Kd [4, 23]: ≥ 77.5 µM
Kd [5, 23]: ≥ 77.7 µM
Kd [6, 23]: 0.287 µM

TLKDGDFIL
Kd [13]: ≤ 0.001 µM
Kd [14]: ≥ 20 µM
Kd [15]: ≥ 20 µM
Kd [12]: ≥ 20 µM
Kd [16]: ≥ 20 µM
Kd [17]: ≥ 20 µM
Kd [18]: ≥ 20 µM
Kd [19]: ≥ 20 µM
Kd [20]: ≥ 20 µM
Kd [21]: ≥ 20 µM

QDPLLGTLS
Kd [1, 23]: ≥ 30.4 µM
Kd [2, 23]: ≥ 46.4 µM
Kd [3, 23]: ≥ 77.9 µM
Kd [4, 23]: ≥ 77.5 µM
Kd [5, 23]: ≥ 74.3 µM
Kd [6, 23]: 12.6 µM
